# Reference: the supplement of paper PMC7125110
# ± gives the standard error. Variants at the floor of the assay were thinned out.
# B1: glmS ribozyme (parent)
# chain: AUAAAAGCGCCAGAACUACAGAAAUGUAGUUGACGAGGAGGAGGUUUAUCGAAUUUUCGGCGGAUGCCUCCAAA
# Variants of: B1
# Assay: self-cleavage kobs at 2500 uM GlcN6P; higher = faster cleavage; RNA array
# Conditions: with glucosamine-6-phosphate
# Summary of the method: (§1)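 The measurements used barcoded ribozyme variants on sequenced MiSeq chips, transcribed in situ by E. coli RNA polymerase and tracked at 37 °C with a hybridised Cy3 probe. Glucosamine-6-phosphate, 40 μM to 10 mM in HEPES/KCl/Mg(OAc)2 buffer, was flowed in while tiles were imaged over ~14 h. Baseline-normalised signals, also normalised to non-cleaving reference variants, gave per-tile medians that were fit to one- or two-exponential decays for kobs. kcat and KM resulted from weighted Michaelis–Menten fits across concentrations.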
row,Variant,self-cleavage kobs at 2500 uM GlcN6P
1,G9A A15U A48G C70G C71U,< 1e-05 s⁻¹
2,A15U A42U G43C C61G U69A,< 1e-05 s⁻¹
3,A33G U56G G59C,< 1e-05 s⁻¹
4,A15G U31A A53G,0.01 ± 0.0031 s⁻¹
5,G40A U54G U69A,< 1e-05 s⁻¹
6,A14U U30G U31C A53U,0.00047 ± 0.00013 s⁻¹
7,G7U U55C C71A,< 1e-05 s⁻¹
8,C16U A42U U54G,0.000152 ± 3e-05 s⁻¹
9,G41A A48U U57C G60A C61U C67U C71G,< 1e-05 s⁻¹
10,G13U A42C U69A,< 1e-05 s⁻¹
11,A6U C58A C67A,< 1e-05 s⁻¹
12,G41A U47G C70G,9.9e-05 ± 3.6e-05 s⁻¹
13,A14U G32U A53G,0.000242 ± 7.5e-05 s⁻¹
14,A6U C16U A53G C71G,5.25e-05 ± 2.3e-05 s⁻¹
15,C11U A12G U56C,0.000115 ± 2.6e-05 s⁻¹
16,A14G U55G U69A,0.000475 ± 8.8e-05 s⁻¹
17,G7U G43A U47A U57C A64U,< 1e-05 s⁻¹
18,A15C U30A A33C G41U C50U C68A C70G,< 1e-05 s⁻¹
19,A14G A33U C70G,< 1e-05 s⁻¹
20,A12G A53G U69C,0.000297 ± 0.00012 s⁻¹
21,C34U U47A G59U A64C C70U,< 1e-05 s⁻¹
22,A6G A14U U45C,< 1e-05 s⁻¹
23,C11U U49C G63C,< 1e-05 s⁻¹

row,Variant,self-cleavage kobs at 2500 uM GlcN6P
1,G35C C50A A52U,< 1e-05 s⁻¹
2,G9A G13C A33C G38C C61U G63U G66C,< 1e-05 s⁻¹
3,C8G C58G,< 1e-05 s⁻¹
4,G7U A14C U56C,< 1e-05 s⁻¹
5,C16G G37U G44U U47A G51C C68A,< 1e-05 s⁻¹
6,A6U G7C C8G,< 1e-05 s⁻¹
7,C16G A36G U69G,4.76e-05 ± 2.4e-05 s⁻¹
8,C10G C34U G37U A42G,< 1e-05 s⁻¹
9,U47C U54A C70U,0.00241 ± 0.00052 s⁻¹
10,G7C C50U A64C C68A,< 1e-05 s⁻¹
11,C34A A48C U54A,< 1e-05 s⁻¹
12,C11U G40U A42U G44A,< 1e-05 s⁻¹
13,C50G A52C U69C C70A,0.000257 ± 8e-05 s⁻¹
14,A33U A42G C61A G66A,< 1e-05 s⁻¹
15,G29A G41U G62C,< 1e-05 s⁻¹
16,A33G U47A A52C C70A,< 1e-05 s⁻¹
17,A6U C10U A12C G60A C67U,< 1e-05 s⁻¹
18,A6U U31A G37C U54A,< 1e-05 s⁻¹
19,C11A G21U A39C U46A U57C,< 1e-05 s⁻¹
20,A14C U30G C58G,5.75e-05 ± 2.4e-05 s⁻¹
21,A6C G44U U54G U57C,< 1e-05 s⁻¹
22,A15U U56G C70U,0.000554 ± 0.00014 s⁻¹
23,U47G U56C C71A,5.07e-05 ± 2.5e-05 s⁻¹

row,Variant,self-cleavage kobs at 2500 uM GlcN6P
1,C10U A12G A15G G29C C34A,< 1e-05 s⁻¹
2,U30C G63A U69G,8.06e-05 ± 3.9e-05 s⁻¹
3,C10U G40A A52C G60U,< 1e-05 s⁻¹
4,C8U U54G A64U U65G,< 1e-05 s⁻¹
5,G21U U57C,9.36e-05 ± 1.4e-05 s⁻¹
6,G32C C50U C58G,< 1e-05 s⁻¹
7,U30G C34A C68U,< 1e-05 s⁻¹
8,C34G G35A U49C,< 1e-05 s⁻¹
9,G43U G63U C68G,< 1e-05 s⁻¹
10,A42G C61A U65C,< 1e-05 s⁻¹
11,G32A A53U U56A C71U,4.22e-05 ± 1e-05 s⁻¹
12,C34A U55G A64G,< 1e-05 s⁻¹
13,G43A G44C U54G,< 1e-05 s⁻¹
14,G41U U45C A64U,< 1e-05 s⁻¹
15,C34U G40C U56A G63A,< 1e-05 s⁻¹
16,A12U U56A C68A,6.47e-05 ± 1.9e-05 s⁻¹
17,A6U G35U G51U,< 1e-05 s⁻¹
18,A33C A36C G38U G41A G66C,< 1e-05 s⁻¹
19,A36C G41C A42U U46C,< 1e-05 s⁻¹
20,G13U A39U U56A,0.000101 ± 2e-05 s⁻¹
21,C16A G32U G43U C61G,< 1e-05 s⁻¹
22,C61G C68G,0.000131 ± 5.8e-05 s⁻¹
23,G29U G32C U47C C67G,< 1e-05 s⁻¹

row,Variant,self-cleavage kobs at 2500 uM GlcN6P
1,A6U A14G U49C,< 1e-05 s⁻¹
2,G13U U47G C67U,8.34e-05 ± 2.2e-05 s⁻¹
3,C10G G37C C67U,< 1e-05 s⁻¹
4,A12C G13C A42U U49C,< 1e-05 s⁻¹
5,A14U C50U G63C,< 1e-05 s⁻¹
6,G7U G35C G43A A48G,< 1e-05 s⁻¹
7,C8G C11A A33U G44A C58U,< 1e-05 s⁻¹
8,G29C C50U C68A,7.07e-05 ± 2.7e-05 s⁻¹
9,G7C G9C C61G G62U,< 1e-05 s⁻¹
10,A36C G51C C71G,< 1e-05 s⁻¹
11,A14G C16U A36G,4.05e-05 ± 1.5e-05 s⁻¹
12,A6C C10U G37U C50G U54C C70A,0.000151 ± 3.4e-05 s⁻¹
13,C8U G29C G60U,< 1e-05 s⁻¹
14,G7A G13A G40C U47G,< 1e-05 s⁻¹
15,C34A A39U G41A U54A,< 1e-05 s⁻¹
16,G29U A42U C68A C71U,< 1e-05 s⁻¹
17,A36U G59C G63U,< 1e-05 s⁻¹
18,U57A A64U C67U U69G,8.87e-05 ± 2.4e-05 s⁻¹
19,G32U A48C G51C,< 1e-05 s⁻¹
20,G7C C16U G29U C61U,< 1e-05 s⁻¹
21,A12U G35A A52C C58G C68G,< 1e-05 s⁻¹
22,U46G C61A,< 1e-05 s⁻¹
23,C8A G13U A53G U65G,< 1e-05 s⁻¹

row,Variant,self-cleavage kobs at 2500 uM GlcN6P
1,C11G C61A C68A,8.83e-05 ± 2.3e-05 s⁻¹
2,A14C U55A C68A,6.41e-05 ± 2.5e-05 s⁻¹
3,U31G G37A C67U,5.28e-05 ± 1.6e-05 s⁻¹
4,A15U A39G A52G,0.000162 ± 6.5e-05 s⁻¹
5,G13A A64C C71U,< 1e-05 s⁻¹
6,G29U U56A C68U,0.000413 ± 6.5e-05 s⁻¹
7,U31G A72G,0.00235 ± 0.00096 s⁻¹
8,G32U U54C G59C C68U,< 1e-05 s⁻¹
9,U31A C70A,5.68e-05 ± 1.7e-05 s⁻¹
10,A52U U57A C71U,0.000749 ± 0.00022 s⁻¹
11,C11U U30G U45A,0.00111 ± 0.00024 s⁻¹
12,C8G A12C A42U C68U,< 1e-05 s⁻¹
13,A15G U47G U57A C71G,5.79e-05 ± 2.3e-05 s⁻¹
14,C16G G40C U45G,6.01e-05 ± 2.1e-05 s⁻¹
15,A53C C61A G62U,< 1e-05 s⁻¹
16,C16U U45G U54G,0.0032 ± 0.001 s⁻¹
17,C34G G43C A53U U54A,< 1e-05 s⁻¹
18,G40A U46G C67U,0.000431 ± 0.0002 s⁻¹
19,G43U U45C C71G,< 1e-05 s⁻¹
20,A39G G41U A42G,0.000339 ± 9.9e-05 s⁻¹
21,A14G A39U C67A,0.0121 ± 0.003 s⁻¹
22,A12G G13C G29A G40A U45C,< 1e-05 s⁻¹
23,G9U G41A C67U,< 1e-05 s⁻¹

row,Variant,self-cleavage kobs at 2500 uM GlcN6P
1,A6G U31C A36G A42U,< 1e-05 s⁻¹
2,G13U A39G U47G C71A,5.73e-05 ± 1.7e-05 s⁻¹
3,C10A A12U U31G U46C,< 1e-05 s⁻¹
4,U31C G59A G66U,< 1e-05 s⁻¹
5,G7C G32U U45C U49C,< 1e-05 s⁻¹
6,A12C A15U G43C G51A,< 1e-05 s⁻¹
7,G13C A36G A64U C70G,< 1e-05 s⁻¹
8,C8U A39G G60C,< 1e-05 s⁻¹
9,C10G U30C G38C U47A,< 1e-05 s⁻¹
10,A36U U57G A64G C67U,< 1e-05 s⁻¹
11,U31G C68G C70G,< 1e-05 s⁻¹
12,G32A G43U G66A C68G,0.00088 ± 0.0003 s⁻¹
13,A14C G29C G44C U49G G59C C71U,< 1e-05 s⁻¹
14,A6U A36C C67G,< 1e-05 s⁻¹
15,C8G A15G U31A G40C G63C,< 1e-05 s⁻¹
16,A6U A12C C34U A48G C61G A64U,< 1e-05 s⁻¹
17,A33U C34G A36U C67U,< 1e-05 s⁻¹
18,G13U C67U C70U,6.19e-05 ± 2.3e-05 s⁻¹
19,G7U C16U A36G G37U G41U C61A,< 1e-05 s⁻¹
20,A33C U56C G63U,< 1e-05 s⁻¹
21,G29C U54G C68A C71G,9.33e-05 ± 4.3e-05 s⁻¹
22,A6G U65C C68U,< 1e-05 s⁻¹
23,A14C G32U U47C C67G,< 1e-05 s⁻¹

row,Variant,self-cleavage kobs at 2500 uM GlcN6P
1,G9A G37A G38U,< 1e-05 s⁻¹
2,A14U G66A C70U,0.00125 ± 0.00031 s⁻¹
3,C16A G38C G40C G44U C67A U69C,< 1e-05 s⁻¹
4,A6C C16G U45G G59U,< 1e-05 s⁻¹
5,G38U U45C U57A,< 1e-05 s⁻¹
6,A15U U46C C70G,8.21e-05 ± 2.2e-05 s⁻¹
7,G13C A15U C61G,< 1e-05 s⁻¹
8,C11G G60C G63C,< 1e-05 s⁻¹
9,C16A A36G U65G,< 1e-05 s⁻¹
10,U30G G44A,6.16e-05 ± 1.7e-05 s⁻¹
11,A12G A36C G62U,< 1e-05 s⁻¹
12,A12G G32C A36U,< 1e-05 s⁻¹
13,A36C C50U G59A,< 1e-05 s⁻¹
14,G7U A14C C16A,< 1e-05 s⁻¹
15,G7U C68A,< 1e-05 s⁻¹
16,A15U G41C,2.7e-05 ± 1.2e-05 s⁻¹
17,A6U A15U A36C,< 1e-05 s⁻¹
18,C10A G29C A42G U55C U56C C70U,< 1e-05 s⁻¹
19,A12G G29C G35U A39U G41C A64G,< 1e-05 s⁻¹
20,A6G A36C U55C,< 1e-05 s⁻¹
21,C10U A36G G41U G59U C68A,< 1e-05 s⁻¹
22,G13U G51C U57A C71A,< 1e-05 s⁻¹

# Variants of: B1
# Assay: self-cleavage kobs at 10000 uM GlcN6P; higher = faster cleavage; RNA array
# Conditions: with glucosamine-6-phosphate
# Summary of the method: as §1
row,Variant,self-cleavage kobs at 10000 uM GlcN6P
1,A14G U55G U69A,0.000104 ± 2.4e-05 s⁻¹
2,A36C G41C A42U U46C,< 1e-05 s⁻¹
3,G13U U47G C67U,4.31e-05 ± 2e-05 s⁻¹
4,A36C G51C C71G,< 1e-05 s⁻¹
5,U46G C61A,< 1e-05 s⁻¹
6,U31G G37A C67U,0.000189 ± 3.7e-05 s⁻¹
7,A15U A39G A52G,0.000571 ± 0.00013 s⁻¹
8,U31G A72G,0.00988 ± 0.0032 s⁻¹
9,U31A C70A,0.000146 ± 3e-05 s⁻¹
10,A52U U57A C71U,0.00177 ± 0.00039 s⁻¹
11,A36U U57G A64G C67U,< 1e-05 s⁻¹
12,A15U U46C C70G,3.23e-05 ± 1.5e-05 s⁻¹
13,C11G G60C G63C,< 1e-05 s⁻¹
14,U30G G44A,6.05e-05 ± 2e-05 s⁻¹
15,C10A G29C A42G U55C U56C C70U,< 1e-05 s⁻¹
